Article PMC4995436, “Characterization of a novel low-temperature-active, alkaline and sucrose-tolerant invertase” (Scientific Reports, 2016)

Substrate: OC[C@H]1O[C@@](CO)(O[C@H]2O[C@H](CO)[C@@H](O)[C@H](O)[C@H]2O)[C@@H](O)[C@@H]1O
Experiment: initial-rate kinetics, DNS reducing sugar assay, Michaelis-Menten fit
Type: biochemical, Bacillus sp. HJ14
Details: 30 °C, McIlvaine buffer pH 8.0, 1.5-36.5 mM sucrose
Source text: initial-rate kinetics, DNS reducing sugar assay, Michaelis-Menten fit on rInvHJ14 (InvHJ14)

B1: rInvHJ14 (InvHJ14) (Bacillus sp. HJ14) (protein)
chain: MTTTDAALRQKIADRIRNYEHLVKKDVYRQHFHLMPPVGLLNDPNGLIQWKGIYHVFYQWQPFKTGHGAKFWGHYTSTDLVNWQHEEAALAPSDWFDQNGCYSGSAFIDDGQMHVMYTGNVRDEQGNRETYQCLAVSEDGIHFQKKGVVATLPEGFTAHFRDPKVWKRNGQWYMVLGAQSLDLKGHLVLFTSDTLDNWTFQGTIAGSGKNGLDNFGYMWECPDLFELDGRDVLIVSPQGLEPDGLKYHNTHQSGYFVGTLDDHSYQYTHGAFEELDRGFDFYAQQTFLDESGRRLLIGWMGVPDQGEEHHPTISYQWIHCLTIPRELRLDEDGHLIQKPVSELQSMRTNEQEHVFHIKRSVHSIPVEDITSAEVFIDQIDTQKGFECCIRAAARIIYDKEEGKLTLERDRFEDRSKEVREAVIEELHDLHIFIDSSSIEIFVNGGREVFTARYFPSPGNKSISISGRNETKLKLKAWHLQREADQ
notes: pEASY-E2 vector, E. coli BL21 (DE3), Ni-NTA purified, approximately 58 kDa on SDS-PAGE
  Km: 62.9 mM
  Vmax: 772 µmol/min/mg
  kcat: 746 s⁻¹
  kcat/Km: 11900 M⁻¹ s⁻¹
